Results on two molecules are retold here after US20250205362A1, “LIPID NANOPARTICLES” (NATIONAL UNIVERSITY CORPORATION HOKKAIDO UNIVERSITY, priority 2022, published 2025).

Series [1] is described as follows: Encapsulation rate of lipid nanoparticles (Ribogreen). The series is classed as physicochemical. On the procedure: The encapsulation rate of the lipid nanoparticles was calculated by measuring the amount of encapsulated nucleic acid (the amount of ssODN in the case of RNP-ssODN) using an RNA intercalator Ribogreen (manufactured by Life Technologies).
The nature of series [2]: Average particle diameter, PdI and zeta potential of lipid nanoparticles (dynamic light scattering). It counts as physicochemical. On the procedure: The mean particle diameter (number average value), ζ-mean particle diameter, and polydispersity index (PdI) of the lipid nanoparticles in PBS(−) (pH 7.4), as well as the zeta potential in 10 mM HEPES buffer (pH 7.4), were measured using an analyzing device, Zetasizer Nano ZS ZEN3600 (Malvern), which utilizes dynamic light scattering.

Series [3] relates to TTR gene. Kind of series: Measurement of TTR-KO activity (serum TTR protein, ELISA). It counts as in vivo, mouse. An outline of the steps:
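Female BALB/c mice (4 weeks) received Cas9/sgTTR-RNP-loaded lipid nanoparticles i.v. at the indicated doses. Serum TTR protein measured by ELISA one week later. TTR-KO activity expressed as serum TTR (%) relative to untreated mice set at 100%.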

A short description of series [4]: pKa of lipid nanoparticles (TNS). The conditions noted are these: apparent pKa of Fluc mRNA-loaded LNP; 50/10/40/1.5 mol%; Table 5.
Method: The pKa of the lipid nanoparticles was measured using p-Toluenesulfonic acid (TNS). First, TNS (final concentration: 0.75 μM) and lipid nanoparticles (final concentration: 30 μM) were mixed in buffer solutions (200 mL) adjusted to various pH values (pH 3.5 to 9.5). The buffer solutions used were: 20 mM citrate buffer solution, 20 mM sodium phosphate buffer solution, or 20 mM Tris-HCl buffer solution containing 130 mM NaCl. The fluorescence intensity of the prepared mixture was measured using a spectrofluorometer (VarioskanLux, Thermo Fisher Scientific) at the setting of λex=321 nm and λem=447 nm. The highest and lowest measured values were taken as 100% and 0% charge rate, respectively, and the pH showing a 50% charge rate was calculated as the apparent pKa. The percentage of the contained cationically charged pH-sensitive cationic lipid was calculated using the Henderson-Hasselbalch equation.
The subject of series [5] is BALB/c mice. Kind of series: Measurement of Fluc activity in tissues after iv Fluc mRNA-loaded lipid nanoparticles. The series is classed as in vivo, mouse. As to conditions: Example 1, FIG. 1; Fluc mRNA-loaded LNP 50/10/40/1.5; Balb/c mice iv 0.01 mg mRNA/kg, 6 hours. Here is the method: First, lipid nanoparticles encapsulating Fluc mRNA (Fluc mRNA-loaded lipid nanoparticles) were intravenously injected into BALB/c mice (female, 4 weeks old) at a dose of 0.01 mg mRNA/kg body weight. Six hours after intravenous injection, the mice were euthanized, and each tissue was collected, frozen in liquid nitrogen, and stored at −80° C. The tissues were homogenized in passive lysis buffer (Promega) using a bead cell disrupter (Micro Smash MS-100R, TOMY Seiko). Tissue debris was removed by centrifugation and the supernatant was collected. Fluc activity in the supernatant was measured using a luciferase assay system (E1500, Promega) according to the manufacturer's protocol. Luminescence was measured using a luminometer (Luminescencer-PSN, ATTO). The protein concentration was determined using a commercially available measurement kit (BCA Protein Assay Kit, Pierce). Fluc activity was expressed as relative light units (RLU) per mg of protein.

Series [6] deals with TTR gene. In words: T7E1 assay on liver genomic DNA. It counts as in vivo, mouse. The conditions noted are these: 2 mg RNP/kg iv two consecutive days, one week after final injection, CL4H6 LNP, n=3. Here is the method:
Lipid nanoparticles encapsulating TTR-RNP-ssODN complexes (TTR-RNP-ssODN-loaded lipid nanoparticles) were intravenously injected to BALB/c mice (female, 4 weeks old) at 2 mg RNP/kg body weight for two consecutive days. One week after the last injection, the mice were euthanized and liver tissues were harvested, flash frozen in liquid nitrogen, and stored at −80° C.
Genomic DNA was extracted and purified from the collected liver tissue using a commercially available nucleic acid extraction kit (NucleoSpin Tissue, MACHEREY-NAGEL) according to the manufacturer's protocol.
The T7E1 assay was performed using a commercially available genome editing detection kit (Alt-R®, Integrated DNA Technologies). The dsDNA treated with T7E1 was subjected to agarose gel electrophoresis in the same manner as in the above described <Measurement of In vitro DNA Cleavage Activity>, and the gel after electrophoresis was stained and the bands were quantified.

Series [7] in a line: Evaluation of biodistribution (fluorescently labeled RNP-ssODN). It counts as in vivo, mouse. As to conditions: mice iv 2 mg RNP/kg, 1 hour; labeled TTR-RNP-ssODN in CL4H6 LNP (ssODN(−): free RNP, no LNP). Here is the method: For fluorescent labeling of lipid nanoparticles, the RNP-ssODN solution described above was mixed with a three-fold molar amount of a fluorescent molecule (DyLight 650 NHS ester) in DMSO and incubated for 30 min at ambient temperature in the dark. Unreacted fluorescent molecules were removed by ultrafiltration (Amicon Ultra-0.5, MWCO 3 kDa, Millipore).
Lipid nanoparticles encapsulating the obtained fluorescently labeled RNP-ssODN (fluorescently labeled RNP-ssODN-loaded lipid nanoparticles) were intravenously injected into BALB/c mice (female, 4 weeks old) at 2 mg RNP/kg body weight. One hour after intravenous injection, the mice were euthanized and various tissues, including blood, were collected. The collected blood was immediately diluted with 1% sodium dodecyl sulfate (SDS) solution. The collected tissues were immediately weighed and then homogenized in 1% sodium dodecyl sulfate (SDS) solution. The resulting homogenates were transferred to a black 96-well plate, and fluorescence was measured using a microplate reader (VarioskanLux, Thermo Fisher Scientific) at settings of λex=652 nm and λem=672 nm. Calibration curves were generated using fluorescently labeled RNP-ssODN-loaded lipid nanoparticles and blood or tissue homogenates similarly prepared from untreated mice. Biodistribution was expressed as the percentage of injected dose per tissue or blood (% injected dose).

The subject of series [8] is dsDNA from the TTR locus. In words: In vitro DNA cleavage activity. The conditions noted are these: n=3. The series is classed as biochemical, mouse. From the text: Genomic DNA was collected and purified from BALB/c mouse liver tissue using a commercially available nucleic acid extraction kit (NucleoSpin Tissue, MACHEREY-NAGEL) according to the manufacturer's protocol.
The dsDNA from the TTR locus was amplified by PCR (using KAPA HiFi HotStart DNA polymerase (KAPA Biosystems)) using the genomic DNA as a template and the primer set shown in Table 4, and purified using a commercially available nucleic acid purification kit (ISOSPIN PCR Product, Nippon Gene).
The ssODN (5 equivalents relative to […]) was added to Cas9/sgTTR-RNP to form a TTR-RNP-ssODN complex. […] The reaction solution was then heated at 65° C. for 5 minutes to inactivate Cas9-RNP, and the dsDNA was then subjected to electrophoresis on a 3% agarose gel at 100 V for 40 minutes. After electrophoresis, the gel was stained (GelRed, Biotium) and visualized using a fluorescent/visible light gel imaging system (Printgraph CMOS I, ATTO). Bands were quantified using image analysis software (ImageJ).
DNA cleavage was calculated using the following formula: in the formula, Int_full and Int_cleaved indicate the intensities derived from full length (uncleaved) and cleaved DNA, respectively.

Setting [9] is: Fluc mRNA-loaded LNP, cationic lipid/DSPC/cholesterol/PEG-DMG 50/10/40/1.5 mol%, Table 5.
Setting [10] is: TTR-RNP-ssODN-loaded LNP (ssODN-TTR_3-40%), cationic lipid/DSPC/cholesterol/PEG-DMG 50/10/40/3.5 mol%, Table 8.
Setting [11] is: TTR-RNP-ssODN-loaded LNP, sgTTR-G211, CL4H6/DSPC/cholesterol/PEG-DMG 50/10/40/3.5 mol%, Table 11.
The mark [12] stands for this setting: TTR-KO activity in mice, TTR-RNP-ssODN-loaded LNP CL4H6/DSPC/cholesterol/PEG-DMG 50/10/40/3.5 mol%, sgTTR-G211 (TTR_3) or sgTTR-G269 (TTR_4).

In series [1] (setting [9]), `CCCCCC(CCCCC)CC(=O)OCCCCCCC(O)(CCCCCCOC(=O)CC(CCCCC)CCCCC)CCCCN(CCC)CCC` [CL4F8-b-5, 7-(4-(dipropylamino)butyl)-7-hydroxytridecane-1,13-diylbis(3-pentyloctanoate)] displayed an Encapsulation rate of 91.0%. The same molecule returned an Encapsulation rate in series [1] (setting [10]) of 60.2%. For the same molecule, in series [2] (setting [9]), the Number-average particle diameter is given as 68.7 nm, the PdI was found to be 0.185, the ζ-average came out at 106.3 nm and the ζ-potential is given as −5.16 mV. In series [2] (setting [10]), this molecule showed a Number-average particle diameter of 127.5 nm, a PdI of 0.128, a ζ-average of 178.0 nm and a ζ-potential of −0.95 mV. Moreover, in series [3] (FIG. 5, TTR-RNP-ssODN-loaded LNP, mouse serum 7 days after administration), the “serum TTR activity / gene knockout versus CL4F6” value was “lower serum TTR activity and higher gene knockout”. In series [4], the pKa (in general, the negative logarithm of the acid dissociation constant) came to 6.25. The “Fluc activity (gene transfer ability) in liver and spleen” value in series [5] is given as “equal to or greater than that of CL4F6”.

B1: ssODN-TTR_3-40%: ssODN pairing with sgTTR-G211, 40% matched; SEQ ID NO 7 (nucleic acid)
DNA: AAAAAAAAAAAAAAAAAAAAAAAAAAAAAAAAAAAAAAAAAAAAAAAAAAAAAAAAAAAAAAAGACGTGGAAAATTAAAAAAAAAAAAAAAAAAAAAAAAAAAAAAAAAAAAAAAAAAAAAAAAAAAAAAAA
B1 displayed an Encapsulation rate in series [1] (setting [11]) of 86.0%. In series [2] (setting [11]), this molecule came in with a Number-average particle diameter of 85.5 nm, a PdI of 0.094, a ζ-average of 120.1 nm and a ζ-potential of 2.54 mV. Further, the “KO activity at the DNA level” value in series [6] is 27%. Besides, the “reduction of serum TTR protein concentration compared to untreated mice” value in series [3] (2 mg RNP/kg iv two consecutive days, one week after final injection, CL4H6 LNP) stood at 81%. Further, in series [3] (FIG. 23, CL4H6 LNP prepared at 4° C., 2.0 mg RNP/kg, 7 days), the “serum TTR activity / gene knockout activity” value was “low serum TTR activity, exhibiting sufficient gene knockout activity”. Also, in series [3] (setting [12]), the “KO (%) 1st test” value is listed as 47.8% and the “KO (%) 2nd test” value is 56.5%. In addition, the “TTR-KO activity (ranking among ssODNs)” value in series [3] (Table 10, CL4H6 LNP, per sgRNA) was “highest TTR-KO activity”. In series [7], this molecule had an ID %/tissue blood of 7.57 ID %/tissue, an ID %/tissue kidney of 0.14 ID %/tissue, an ID %/tissue liver of 42.28 ID %/tissue and an ID %/tissue lung of 0.26 ID %/tissue. The molecule further showed an ID %/tissue spleen in series [7] of 3.49 ID %/tissue. Further, in series [8] (FIG. 7, TTR-RNP-ssODN, sgTTR-G211, 37° C. 30 min), the “in vitro DNA cleavage activity” value is reported as “about the same as that of TTR-RNP-ssODN containing ssODN-TTR_3-0%”. Also, in series [8] (FIG. 22(A), sgTTR-G211 RNP, activity without ssODN = 100%), the “relative DNA cleavage activity at 37° C.” value is reported as “about the same as that of the RNP containing ssODN-TTR_3-0%”. Also, the “relative DNA cleavage activity at 15° C.” value in series [8] (FIG. 22(B), sgTTR-G211 RNP, activity without ssODN = 100%) is “higher than that of RNP containing ssODN-TTR_3-80%, but was clearly lower than that of RNP containing ssODN-TTR_3-0%”.
